In article PMC2880861 (New journal of chemistry = Nouveau journal de chimie, 2010):

Columns and labels:
[1] = test system: arterial thrombosis; conditions: guinea pig; cited from earlier work
[2] = molecular target: T1, gelled human fibrin (Homo sapiens, UniProt P02671+P02675+P02679); experiment: Relaxivity / variable temperature NMRD in fibrin gel; type: physicochemical
T1 sequence (P02671 20-644 isoform P02671-2 limits assumed): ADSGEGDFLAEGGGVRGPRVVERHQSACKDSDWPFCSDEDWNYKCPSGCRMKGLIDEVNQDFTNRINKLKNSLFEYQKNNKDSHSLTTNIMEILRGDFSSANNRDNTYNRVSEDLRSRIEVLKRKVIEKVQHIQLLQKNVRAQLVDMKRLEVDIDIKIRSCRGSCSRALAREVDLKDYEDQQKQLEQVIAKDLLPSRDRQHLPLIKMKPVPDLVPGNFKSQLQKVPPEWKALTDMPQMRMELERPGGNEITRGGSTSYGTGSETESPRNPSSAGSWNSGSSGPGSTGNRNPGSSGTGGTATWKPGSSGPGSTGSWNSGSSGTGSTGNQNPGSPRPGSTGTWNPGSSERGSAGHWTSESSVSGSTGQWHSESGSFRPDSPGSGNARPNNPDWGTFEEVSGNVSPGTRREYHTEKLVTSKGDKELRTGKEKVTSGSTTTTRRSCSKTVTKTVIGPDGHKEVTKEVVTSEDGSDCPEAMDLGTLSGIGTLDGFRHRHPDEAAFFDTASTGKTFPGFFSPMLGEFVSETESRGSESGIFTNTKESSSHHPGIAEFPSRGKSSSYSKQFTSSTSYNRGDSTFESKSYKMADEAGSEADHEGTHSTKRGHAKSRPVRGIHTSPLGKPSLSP
T1 sequence (P02675 45-491 limits assumed): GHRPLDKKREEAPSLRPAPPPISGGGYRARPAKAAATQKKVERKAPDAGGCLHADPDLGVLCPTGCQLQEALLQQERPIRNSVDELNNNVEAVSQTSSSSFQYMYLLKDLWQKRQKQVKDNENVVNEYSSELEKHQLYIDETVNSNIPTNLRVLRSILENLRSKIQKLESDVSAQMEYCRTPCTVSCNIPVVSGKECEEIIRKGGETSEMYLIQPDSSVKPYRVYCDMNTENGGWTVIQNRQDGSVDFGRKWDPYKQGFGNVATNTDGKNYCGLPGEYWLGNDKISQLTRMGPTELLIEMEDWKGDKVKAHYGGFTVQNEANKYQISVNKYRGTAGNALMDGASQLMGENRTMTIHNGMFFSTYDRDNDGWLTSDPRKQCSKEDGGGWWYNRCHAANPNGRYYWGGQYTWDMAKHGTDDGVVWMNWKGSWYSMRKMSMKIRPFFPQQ
T1 sequence (P02679 27-437 isoform P02679-2 limits assumed): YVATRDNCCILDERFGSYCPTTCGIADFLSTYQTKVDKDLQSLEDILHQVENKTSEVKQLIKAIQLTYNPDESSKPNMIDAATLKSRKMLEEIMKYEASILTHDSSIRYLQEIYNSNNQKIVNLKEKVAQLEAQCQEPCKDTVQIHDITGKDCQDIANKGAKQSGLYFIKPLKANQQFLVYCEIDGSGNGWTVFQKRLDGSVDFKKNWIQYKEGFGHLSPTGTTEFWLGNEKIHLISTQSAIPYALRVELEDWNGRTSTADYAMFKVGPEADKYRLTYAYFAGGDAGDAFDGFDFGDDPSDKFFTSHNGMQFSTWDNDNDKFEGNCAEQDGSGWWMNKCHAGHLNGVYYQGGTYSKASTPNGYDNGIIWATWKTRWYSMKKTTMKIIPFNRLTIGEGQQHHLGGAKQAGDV

[3] = Variable temperature NMRD and O-17 NMR relaxation in TBS; type: physicochemical
[4] = molecular target: T2, human fibrinogen (Homo sapiens, UniProt P02671+P02675+P02679); experiment: NMRD relaxivity in human fibrinogen/TBS solution; type: physicochemical; conditions: 30 μM human fibrinogen/TBS, 35 °C
T2 sequence (P02671 20-629 limits assumed): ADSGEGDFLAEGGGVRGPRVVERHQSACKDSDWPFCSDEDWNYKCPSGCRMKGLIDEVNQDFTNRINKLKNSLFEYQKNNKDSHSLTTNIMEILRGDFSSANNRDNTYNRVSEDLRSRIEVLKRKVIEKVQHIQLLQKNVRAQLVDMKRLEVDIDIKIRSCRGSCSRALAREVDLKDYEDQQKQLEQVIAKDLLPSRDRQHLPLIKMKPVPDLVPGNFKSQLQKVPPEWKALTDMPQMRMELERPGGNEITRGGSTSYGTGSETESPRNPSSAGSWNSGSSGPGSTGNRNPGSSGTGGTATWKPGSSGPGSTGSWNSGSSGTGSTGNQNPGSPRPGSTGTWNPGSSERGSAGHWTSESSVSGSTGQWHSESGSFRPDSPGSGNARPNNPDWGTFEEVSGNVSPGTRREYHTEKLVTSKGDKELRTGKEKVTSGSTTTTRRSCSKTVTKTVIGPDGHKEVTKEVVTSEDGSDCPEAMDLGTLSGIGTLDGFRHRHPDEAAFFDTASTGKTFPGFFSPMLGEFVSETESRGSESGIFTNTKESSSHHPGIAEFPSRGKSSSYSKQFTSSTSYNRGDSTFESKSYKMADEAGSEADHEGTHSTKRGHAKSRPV
T2 sequence (P02675 31-491): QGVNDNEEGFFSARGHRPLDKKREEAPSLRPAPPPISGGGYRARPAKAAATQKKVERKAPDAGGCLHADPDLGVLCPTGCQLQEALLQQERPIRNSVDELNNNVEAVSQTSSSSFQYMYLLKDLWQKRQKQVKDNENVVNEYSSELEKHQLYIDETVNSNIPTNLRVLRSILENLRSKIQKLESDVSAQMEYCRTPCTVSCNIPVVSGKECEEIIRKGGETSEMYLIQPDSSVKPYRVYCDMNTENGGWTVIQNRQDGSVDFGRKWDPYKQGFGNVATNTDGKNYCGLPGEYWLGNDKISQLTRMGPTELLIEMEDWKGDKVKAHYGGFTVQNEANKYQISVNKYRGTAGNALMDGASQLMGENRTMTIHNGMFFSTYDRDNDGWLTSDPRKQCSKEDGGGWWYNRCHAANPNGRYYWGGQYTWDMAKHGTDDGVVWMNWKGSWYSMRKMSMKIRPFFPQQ
T2 sequence (P02679 27-433 limits assumed): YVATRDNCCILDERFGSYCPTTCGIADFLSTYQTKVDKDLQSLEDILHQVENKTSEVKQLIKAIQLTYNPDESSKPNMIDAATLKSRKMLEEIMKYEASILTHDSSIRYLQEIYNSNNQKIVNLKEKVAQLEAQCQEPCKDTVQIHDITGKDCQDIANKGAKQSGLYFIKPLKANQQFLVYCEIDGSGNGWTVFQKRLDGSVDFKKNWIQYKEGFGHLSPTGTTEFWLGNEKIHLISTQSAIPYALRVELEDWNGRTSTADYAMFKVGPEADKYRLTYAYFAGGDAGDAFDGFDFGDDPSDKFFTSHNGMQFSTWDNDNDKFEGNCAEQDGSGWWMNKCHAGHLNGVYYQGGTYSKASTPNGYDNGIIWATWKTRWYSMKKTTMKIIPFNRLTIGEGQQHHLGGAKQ

[5] = molecular target: soluble fibrin fragment DD(E); experiment: DD; conditions: read-out: Ki, inhibition of binding of a fluorescent peptide to DD(E); TBS·Ca; DD(E) 1.5 μM, Fl 1 μM; uncertainties estimated at ±10%
[6] = in vitro; conditions: male, Sprague Dawley, rat, tissue homogenate
[7] = rat, tissue homogenate

In the case of `CC(C)C[C@H](NC(=O)CN(CCNC(=O)C(CN(CCN(CC(=O)O)CC(=O)O)CC(=O)O)N(CC(=O)O)CC(=O)O)CCNC(=O)C(CN(CCN(CC(=O)O)CC(=O)O)CC(=O)O)N(CC(=O)O)CC(=O)O)C(=O)N1CCC[C@H]1C(=O)N[C@H]1CSSC[C@@H](C(=O)N[C@@H](Cc2ccc(-c3ccccc3)cc2)C(=O)N[C@@H](CC(=O)O)C(=O)NCc2cccc(CNC(=O)CN(CCNC(=O)C(CN(CCN(CC(=O)O)CC(=O)O)CC(=O)O)N(CC(=O)O)CC(=O)O)CCNC(=O)C(CN(CCN(CC(=O)O)CC(=O)O)CC(=O)O)N(CC(=O)O)CC(=O)O)c2)NC(=O)[C@H]([C@@H](C)O)NC(=O)CNC(=O)[C@H](Cc2ccc(O)cc2)NC(=O)[C@H](Cc2ccc(O)cc2)NC(=O)[C@H](CC(=O)O)NC1=O` (some centres unmarked) [Compound 5], the “efficacy in arterial thrombosis model” value [1] is given as “showed efficacy”, the “ΔEl^‡ (temperature dependence of τloc)” value ([2]; 30 μM fibrin gel (FBN)) is given as 30 ± 2 kJ/mol and the “τloc^37” value ([2]; 30 μM fibrin gel (FBN), 37 °C) is given as 720±20 ps. The “τR^37 (global)” value ([2]; 30 μM fibrin gel (FBN), Lipari-Szabo model) was >20,000 (NA) ps, the “F^2” value ([2]; 30 μM fibrin gel (FBN), dimensionless order parameter) was 0.08 ±0.02 and the “fraction bound to fibrin” value ([2]; 50 μM 5 in 30 μM fibrin gel, based on the measured binding constant) was 81%. For the same compound, the “relaxivity per Gd” value ([2]; bound to fibrin at 1.5T) was 18 mM⁻¹ s⁻¹, the relaxivity per molecule ([2]; bound to fibrin at 1.5T) was 72 mM⁻¹ s⁻¹ and the “global τR” value ([2]; fibrin-bound, best fits) was greater than 20 ns. For the same compound, the “ΔER^‡ (temperature dependence of τR)” value [3] was 24.9 ± 0.4 kJ/mol, the “ΔH^‡ (temperature dependence of τm)” value [3] was 45.7 ± 1.4 kJ/mol and the “Δ^2 ×10^−18” value [3] was 10.2 ±0.5 s^2. For the same compound, the “τm^37” value ([3]; 37 °C) was 124±9 ns, the “τv^37” value ([3]; 37 °C) was 18.0 ±1.7 ps and the “τR^37” value ([3]; 37 °C, isotropic model of rotation) was 389±4 ps. For the same compound, the “F^2” value ([3]; dimensionless) was 1 and the “binding to fibrinogen (from relaxivity enhancement)” value [4] was “does not bind/binds weakly to fibrinogen”.

In the case of `CC(C)C[C@H](NC(=O)[C@@H]1CSSC[C@H](NC(=O)[C@@H]2CCCN2C(=O)[C@H](CC(C)C)NC(=O)[C@H](CNC(=O)C(CN(CCN(CC(=O)O)CC(=O)O)CC(=O)O)N(CC(=O)O)CC(=O)O)NC(=O)C(CN(CCN(CC(=O)O)CC(=O)O)CC(=O)O)N(CC(=O)O)CC(=O)O)C(=O)N[C@@H](CC(=O)O)C(=O)N[C@@H](Cc2ccc(O)cc2)C(=O)N[C@@H](Cc2ccc(O)cc2)C(=O)NCC(=O)N[C@@H]([C@@H](C)O)C(=O)N1)C(=O)N[C@@H](CC(=O)O)C(=O)NCc1ccc(CNC(=O)[C@H](CNC(=O)C(CN(CCN(CC(=O)O)CC(=O)O)CC(=O)O)N(CC(=O)O)CC(=O)O)NC(=O)C(CN(CCN(CC(=O)O)CC(=O)O)CC(=O)O)N(CC(=O)O)CC(=O)O)cc1` (some centres unmarked) [Compound 4], the Ki [5] is reported as 12 µM, the half-life at 100 µM [6] is reported as 1.09 h and the “fold increase in metabolic stability” value [7] is reported as 6 to 7 fold.
